Values quoted from earlier work, collected in patent US6663886B2, “Inhibition of cell-cell binding by lipid assemblies” (Regents of the University of California, priority 1997, dated 2003).

Molecular target: T1, P-selectin (Homo sapiens, UniProt P16109)
T1 sequence (P16109 42-830): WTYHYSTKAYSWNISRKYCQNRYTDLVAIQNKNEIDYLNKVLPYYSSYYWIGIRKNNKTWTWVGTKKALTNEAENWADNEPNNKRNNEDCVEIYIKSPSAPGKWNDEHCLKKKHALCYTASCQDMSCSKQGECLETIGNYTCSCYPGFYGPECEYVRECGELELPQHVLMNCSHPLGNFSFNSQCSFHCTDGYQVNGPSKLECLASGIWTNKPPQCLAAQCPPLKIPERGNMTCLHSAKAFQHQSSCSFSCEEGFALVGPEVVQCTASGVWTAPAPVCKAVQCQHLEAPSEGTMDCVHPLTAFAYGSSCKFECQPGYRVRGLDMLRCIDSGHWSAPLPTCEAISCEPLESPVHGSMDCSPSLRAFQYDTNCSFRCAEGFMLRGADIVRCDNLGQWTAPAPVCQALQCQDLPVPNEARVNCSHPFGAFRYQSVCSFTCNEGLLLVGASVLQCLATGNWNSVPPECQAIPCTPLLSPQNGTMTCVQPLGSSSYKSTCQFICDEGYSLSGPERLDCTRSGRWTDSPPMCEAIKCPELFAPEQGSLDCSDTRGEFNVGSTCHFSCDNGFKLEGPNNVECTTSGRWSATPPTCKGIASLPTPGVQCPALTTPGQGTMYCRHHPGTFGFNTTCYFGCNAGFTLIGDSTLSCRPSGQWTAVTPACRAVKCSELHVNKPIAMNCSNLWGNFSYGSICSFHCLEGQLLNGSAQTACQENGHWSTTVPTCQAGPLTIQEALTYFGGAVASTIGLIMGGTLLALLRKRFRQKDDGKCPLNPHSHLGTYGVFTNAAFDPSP
Conditions: literature (Nelson et al. 1993; Moore et al. 1991)

B1: natural ligand: natural ligand of P-selectin, P-selectin glycoprotein ligand 1 (protein, UniProt Q14242 42-412, looked up)
P-selectin glycoprotein …: QATEYEYLDYDFLPETEPPEMLRNSTDTTPLTGPGTPESTTVEPAARRSTGLDAGGAVTELTTELANMGNLSTDSAAMEIQTTQPAATEAQTTQPVPTEAQTTPLAATEAQTTRLTATEAQTTPLAATEAQTTPPAATEAQTTQPTGLEAQTTAPAAMEAQTTAPAAMEAQTTPPAAMEAQTTQTTAMEAQTTAPEATEAQTTQPTATEAQTTPLAAMEALSTEPSATEALSMEPTTKRGLFIPFSVSSVTHKGIPMAASNLSVNYPVGAPDHISVKQCLLAILILALVATIFFVCTVVLAVRLSRKGHMYPVRNYSPTEMVCISSLLPDGGEGPSATANGGLSKAKSPGLTPEPREDREGDDLTLHSFLP
For B1, the “binding affinity of P-selectin” value is given as “in the nM range”.
